# Assay results reported in patent publication US20220323445A1, “REDUCING IMMUNOGENICITY TO PEGLOTICASE” (Horizon Therapeutics Ireland DAC, priority 2020, published 2022).
# B1: pegloticase (protein)
# chain: TYKKNDEVEFVRTGYGKDMIKVLHIQRDGKYHSIKEVATTVQLTLSSKKDYLHGDNSDVIPTDTIKNTVNVLAKFKGIKSIETFAVTICEHFLSSFKHVIRAQVYVEEVPWKRFEKNGVKHVHAFIYTPTGTHFCEVEQIRNGPPVIHSGIKDLKVLKTTQSGFEGFIKDQFTTLPEVKDRCFATQVYCKWRYHQGRDVDFEATWDTVRSIVLQKFAGPYDKGEYSPSVQKTLYDIQVLTLGQVPEIEDMEISLPNIHYLNIDMSKMGLINKEEVLLPLDNPYGKITGTVKRKLSSRL
# modifications: monomethoxy PEG conjugated; Krystexxa Sequence
# notes: covalent conjugate of uricase produced by a genetically modified strain of Escherichia coli and monomethoxypoly (ethylene glycol)
# Test system: serum uric acid (sUA)
# Assay: Serum uric acid (sUA) levels and sUA responders, open-label study of pegloticase with MTX (NCT03635957)
# Assay type: in vivo, human
# Protocol: The primary objective is to estimate the response rate during Month 6 (Weeks 20, 22, and 24), as measured by the sustained normalization of serum uric acid (SUA) to <6 mg/dL for at least 80% of the time during Month 6 in subjects receiving KXX with MTX.
# The primary efficacy outcome endpoint is the sustained normalization of SUA to <6 mg/dL for at least 80% of the time during month 6 (weeks 20, 22, and 24) in subjects receiving KXX with MTX. This is slightly below the urate solubility threshold and this threshold has been the accepted standard for nearly all modern gout trials. Participants who achieve this endpoint were classified as “responders.” Serum uric acid (SUA) responders may also be defined as participants achieving and maintaining SUA <6 mg/dL for at least 80% of the time during Month 6 (Weeks 20, 22, and 24).
# Blood samples may be collected prior to each pegloticase infusion for measurement of SUA levels using the Beckman Coulter AU System Uric Acid procedure. Participants were declared “non-responders” if there were SUA measures >6 mg/dL at 2 consecutive study visits beginning with the week 2 visit. […] If the SUA goal is not maintained before or at the 12-week mark, it was assumed that the participant had developed clinically relevant anti-pegloticase antibody and they received no further infusions. This assumption and subsequent discontinuation of pegloticase was consistent with the protocol of large phase III randomized controlled trials and the product label. A formal stopping rule was 2 occasions of SUA levels of greater than 6 mg/dL.
# Clinical Chemistry—Blood samples were collected prior to each pegloticase infusion for measurement of SUA levels (primary efficacy parameter) using the Beckman Coulter AU System Uric Acid procedure. In this procedure uric acid is converted to hydrogen peroxide. Hydrogen peroxide reacts with reagent to produce a chromophore which is read bichromatically at 660/800 nm. The amount of dye formed is proportional to the uric acid concentration in the sample.
# Serum samples for measurement of SUA levels were collected at the Screening Visit, the Week −4 Visit (prior to the first dose of MTX), and the Week −2 Visit during the MTX Run-in Period; within 48 hours prior to each pegloticase infusion and after the end of each pegloticase infusion prior to discharge from the site during the Pegloticase+IMM Period; at the non-infusion Week 52/End of Study/Early Termination Visits and at the Post Treatment 3 and 6 Month Follow-up Visits. Additional serum samples for SUA levels were collected at optional non-infusion (Frequent Sampling) Visits at Weeks 1 and 7. […] Subjects with SUA level >6 mg/dL at 2 consecutive visits beginning at Week 2 visit discontinued treatment, completed the End of Pegloticase Infusion Visit procedures within 2 weeks and continued the subject visits according to the protocol (without treatment).
# Efficacy analyses were performed using the modified intention-to-treat (mITT) population, defined as all enrolled subjects who received ≥1 dose of pegloticase. The proportion of Month 6 responders was summarized, along with a 95% confidence interval for the proportion. The proportion of Month 3 and overall (Months 3 and 6 combined) responders was analyzed similarly.
# A subject was declared a non-responder if the subject had SUA level >6 mg/dL at 2 consecutive study visits beginning with the Week 2 Visit. In addition, a subject who withdraws from study treatment for any reason after the first dose of pegloticase in the KXX+MTX Period and prior to Month 6 (for the primary endpoint) or Month 3 (for the secondary endpoint) was considered a non-responder if SUA values were not collected at the planned time points.
# Patients were administered oral MTX (15 mg/week) and folate (1 mg/day) 4 weeks prior to the first pegloticase infusion (Day 1) and throughout the pegloticase treatment period. […]
# [1] = Week 18 - Pre-Infusion, Month 6 sUA Responders
# [2] = Week 18 - Pre-Infusion, mITT, n=11
# [3] = Week 20 - Post-Infusion, Month 6 sUA Responders
# [4] = Week 20 - Post-Infusion, mITT, n=11
# [5] = Week 20 - Pre-Infusion, Month 6 sUA Responders
# [6] = Week 20 - Pre-Infusion, mITT, n=11
# [7] = Week 22 - Post-Infusion, Month 6 sUA Responders
# [8] = Week 22 - Post-Infusion, mITT, n=11
# [9] = Week 22 - Pre-Infusion, Month 6 sUA Responders
# [10] = Week 22 - Pre-Infusion, mITT, n=11
# [11] = Week 24 - Post-Infusion, Month 6 sUA Responders
# [12] = Week 24 - Post-Infusion, mITT, n=5
# [13] = Week 24 - Pre-Infusion, Month 6 sUA Responders
molecule,measurement,setting,value
B1,"sUA Change from Baseline, Mean",[1],-8.97 mg/dL
same,"sUA Change from Baseline, Median",[1],-8.80 mg/dL
same,"sUA Observed, Mean",[1],0.30 mg/dL
same,"sUA Observed, Median",[1],0.30 mg/dL
same,"sUA < 6 mg/dL, n (%)",[2],11 (100%)
same,"sUA Change from Baseline, Mean (SD)",[2],−8.97 (2.810) mg/dL
same,"sUA Change from Baseline, Median",[2],-8.80 mg/dL
same,"sUA Observed, Mean (SD)",[2],0.30 (0.000) mg/dL
same,"sUA Observed, Median",[2],0.30 mg/dL
same,"sUA < 6 mg/dL, %",[3],(100%)
same,"sUA Change from Baseline, Mean",[3],-8.97 mg/dL
same,"sUA Change from Baseline, Median",[3],-8.80 mg/dL
same,"sUA Observed, Mean",[3],0.30 mg/dL
same,"sUA Observed, Median",[3],0.30 mg/dL
same,"sUA < 6 mg/dL, n (%)",[4],11 (100%)
same,"sUA Change from Baseline, Mean (SD)",[4],−8.97 (2.810) mg/dL
same,"sUA Change from Baseline, Median",[4],-8.80 mg/dL
same,"sUA Observed, Mean (SD)",[4],0.30 (0.000) mg/dL
same,"sUA Observed, Median",[4],0.30 mg/dL
same,"sUA < 6 mg/dL, %",[5],(100%)
same,"sUA Change from Baseline, Mean",[5],-8.97 mg/dL
same,"sUA Change from Baseline, Median",[5],-8.80 mg/dL
same,"sUA Observed, Mean",[5],0.30 mg/dL
same,"sUA Observed, Median",[5],0.30 mg/dL
same,"sUA < 6 mg/dL, n (%)",[6],11 (100%)
same,"sUA Change from Baseline, Mean (SD)",[6],−8.97 (2.810) mg/dL
same,"sUA Change from Baseline, Median",[6],-8.80 mg/dL
same,"sUA Observed, Mean (SD)",[6],0.30 (0.000) mg/dL
same,"sUA Observed, Median",[6],0.30 mg/dL
same,"sUA < 6 mg/dL, %",[7],(100%)
same,"sUA Change from Baseline, Mean",[7],-8.97 mg/dL
same,"sUA Change from Baseline, Median",[7],-8.80 mg/dL
same,"sUA Observed, Mean",[7],0.30 mg/dL
same,"sUA Observed, Median",[7],0.30 mg/dL
same,"sUA < 6 mg/dL, n (%)",[8],11 (100%)
same,"sUA Change from Baseline, Mean (SD)",[8],−8.97 (2.810) mg/dL
same,"sUA Change from Baseline, Median",[8],-8.80 mg/dL
same,"sUA Observed, Mean (SD)",[8],0.30 (0.000) mg/dL
same,"sUA Observed, Median",[8],0.30 mg/dL
same,"sUA < 6 mg/dL, %",[9],(100%)
same,"sUA Change from Baseline, Mean",[9],-8.97 mg/dL
same,"sUA Change from Baseline, Median",[9],-8.80 mg/dL
same,"sUA Observed, Mean",[9],0.30 mg/dL
same,"sUA Observed, Median",[9],0.30 mg/dL
same,"sUA < 6 mg/dL, n (%)",[10],11 (100%)
same,"sUA Change from Baseline, Mean (SD)",[10],−8.97 (2.810) mg/dL
same,"sUA Change from Baseline, Median",[10],-8.80 mg/dL
same,"sUA Observed, Mean (SD)",[10],0.30 (0.000) mg/dL
same,"sUA Observed, Median",[10],0.30 mg/dL
same,"sUA < 6 mg/dL, %",[11],(100%)
same,"sUA Change from Baseline, Mean",[11],-9.18 mg/dL
same,"sUA Change from Baseline, Median",[11],-9.30 mg/dL
same,"sUA Observed, Mean",[11],0.30 mg/dL
same,"sUA Observed, Median",[11],0.30 mg/dL
same,"sUA < 6 mg/dL, n (%)",[12],5 (100%)
same,"sUA Change from Baseline, Mean (SD)",[12],−9.18 (4.135) mg/dL
same,"sUA Change from Baseline, Median",[12],-9.30 mg/dL
same,"sUA Observed, Mean (SD)",[12],0.30 (0.000) mg/dL
same,"sUA Observed, Median",[12],0.30 mg/dL
same,"sUA < 6 mg/dL, %",[13],(100%)
same,"sUA Change from Baseline, Mean",[13],-8.97 mg/dL
same,"sUA Change from Baseline, Median",[13],-8.80 mg/dL
same,"sUA Observed, Mean",[13],0.30 mg/dL
same,"sUA Observed, Median",[13],0.30 mg/dL
